Measurements as given in patent publication US7202329 (MYRIAD GENETICS, dated 2007).

How the values were obtained:
Experiment in all cases: yeast two-hybrid
[1] = target: T1, intersectin 1 (aa 387-611) (UniProt Q15811 387-611)
T1 construct: range 387-611
T1 sequence (looked up): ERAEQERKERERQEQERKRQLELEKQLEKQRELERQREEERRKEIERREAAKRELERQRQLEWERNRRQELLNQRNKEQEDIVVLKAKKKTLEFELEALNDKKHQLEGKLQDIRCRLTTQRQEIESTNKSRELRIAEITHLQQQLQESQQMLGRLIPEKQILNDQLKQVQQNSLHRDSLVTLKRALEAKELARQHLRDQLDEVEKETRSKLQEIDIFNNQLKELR

[2] = target: T2, GTPase-activating protein 1 (aa 1308-1606) (UniProt P46940 1308-1606)
T2 construct: range 1308-1606; also called IQGAP1; IQGAP
T2 sequence (looked up): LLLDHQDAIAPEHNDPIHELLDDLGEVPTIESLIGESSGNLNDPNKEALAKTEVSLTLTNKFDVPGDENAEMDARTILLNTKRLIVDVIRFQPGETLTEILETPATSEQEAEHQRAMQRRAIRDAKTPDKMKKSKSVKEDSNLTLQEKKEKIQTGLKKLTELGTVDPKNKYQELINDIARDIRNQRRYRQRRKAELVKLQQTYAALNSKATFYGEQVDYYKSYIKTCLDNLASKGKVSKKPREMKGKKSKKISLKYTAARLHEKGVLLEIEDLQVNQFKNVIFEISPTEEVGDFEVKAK

[3] = target: T3, serum deprivation response (aa 75-258) (UniProt O95810 75-258)
T3 construct: range 75-258
T3 sequence (looked up): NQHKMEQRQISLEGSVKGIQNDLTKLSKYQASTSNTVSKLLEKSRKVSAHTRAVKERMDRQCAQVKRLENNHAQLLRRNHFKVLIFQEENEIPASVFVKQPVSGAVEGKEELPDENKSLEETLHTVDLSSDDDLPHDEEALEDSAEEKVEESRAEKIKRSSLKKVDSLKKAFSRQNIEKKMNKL

[4] = target: T4, catenin, GenBank U96136 (aa 684-1148) (UniProt Q9UQB3 684-1148)
T4 construct: range 684-1148
T4 sequence (looked up): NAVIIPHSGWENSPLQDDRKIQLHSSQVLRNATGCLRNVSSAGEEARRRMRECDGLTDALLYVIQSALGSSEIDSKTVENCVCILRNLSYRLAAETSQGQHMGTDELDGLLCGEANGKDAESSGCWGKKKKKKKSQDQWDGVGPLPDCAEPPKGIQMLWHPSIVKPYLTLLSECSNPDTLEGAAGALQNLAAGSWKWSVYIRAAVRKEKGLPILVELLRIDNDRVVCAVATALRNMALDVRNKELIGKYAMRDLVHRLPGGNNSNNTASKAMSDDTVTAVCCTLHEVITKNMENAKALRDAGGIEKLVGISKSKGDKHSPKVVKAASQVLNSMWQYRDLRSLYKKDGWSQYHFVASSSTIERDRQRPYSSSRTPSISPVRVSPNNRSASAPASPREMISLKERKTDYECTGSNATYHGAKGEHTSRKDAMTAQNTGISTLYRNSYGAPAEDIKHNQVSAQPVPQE

[5] = target: T5, hook2 protein (aa 290-555) (UniProt Q96ED9 290-555)
T5 construct: range 290-555
T5 sequence (looked up): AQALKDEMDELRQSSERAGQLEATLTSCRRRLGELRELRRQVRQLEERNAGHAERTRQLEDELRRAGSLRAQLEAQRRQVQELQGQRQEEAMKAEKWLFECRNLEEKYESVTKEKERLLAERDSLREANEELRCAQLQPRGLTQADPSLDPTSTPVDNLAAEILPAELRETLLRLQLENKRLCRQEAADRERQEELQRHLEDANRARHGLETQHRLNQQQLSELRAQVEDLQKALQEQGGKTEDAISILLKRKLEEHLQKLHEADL

[6] = target: T6, GTPase-activating protein 1 (aa 1392-1657) (UniProt P46940 1392-1657)
T6 construct: range 1392-1657; also called IQGAP1; IQGAP
T6 sequence (looked up): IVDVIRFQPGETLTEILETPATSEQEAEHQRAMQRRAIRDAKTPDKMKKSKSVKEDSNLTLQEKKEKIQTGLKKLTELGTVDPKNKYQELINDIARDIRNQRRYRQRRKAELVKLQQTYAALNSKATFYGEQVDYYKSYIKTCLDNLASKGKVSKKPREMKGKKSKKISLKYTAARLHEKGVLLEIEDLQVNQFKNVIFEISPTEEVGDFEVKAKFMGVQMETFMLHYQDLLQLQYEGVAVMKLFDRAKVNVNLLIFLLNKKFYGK

[7] = target: T7, intersectin 1 (aa 210-633) (UniProt Q15811 210-633)
T7 construct: range 210-633
T7 sequence (looked up): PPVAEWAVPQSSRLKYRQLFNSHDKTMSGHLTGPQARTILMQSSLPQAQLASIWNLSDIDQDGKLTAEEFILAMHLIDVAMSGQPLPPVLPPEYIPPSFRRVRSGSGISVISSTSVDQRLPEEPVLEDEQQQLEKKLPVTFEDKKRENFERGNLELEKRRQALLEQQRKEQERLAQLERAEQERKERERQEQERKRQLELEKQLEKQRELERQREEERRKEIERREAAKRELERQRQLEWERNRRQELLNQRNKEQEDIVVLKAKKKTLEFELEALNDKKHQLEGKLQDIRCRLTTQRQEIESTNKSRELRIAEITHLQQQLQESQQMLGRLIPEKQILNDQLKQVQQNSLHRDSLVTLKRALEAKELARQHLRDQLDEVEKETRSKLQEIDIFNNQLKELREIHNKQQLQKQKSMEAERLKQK

[8] = target: T8, mitotic spindle coiled-coil related protein (aa 723-1012) (UniProt Q96R06 723-1012)
T8 construct: range 723-1012
T8 sequence (looked up): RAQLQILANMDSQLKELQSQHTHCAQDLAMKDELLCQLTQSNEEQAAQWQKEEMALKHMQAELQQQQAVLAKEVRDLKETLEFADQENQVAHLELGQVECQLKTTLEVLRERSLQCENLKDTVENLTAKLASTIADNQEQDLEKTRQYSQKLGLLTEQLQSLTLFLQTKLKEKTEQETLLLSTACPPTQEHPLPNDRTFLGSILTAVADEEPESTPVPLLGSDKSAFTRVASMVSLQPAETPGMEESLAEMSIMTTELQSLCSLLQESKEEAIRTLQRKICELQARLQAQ

Measured: binding result

B1: Tsg101 (aa 240-391) (other, human, UniProt Q99816 240-390, looked up)
chain: WRMKEEMDRAQAELNALKRTEEDLKKGHQKLEEMVTRLDQEVAEVDKNIELLKKKDEELSSALEKMENQSENNDIDEVIIPTAPLYKQILNLYAEENAIEDTIFYLGEALRRGVIDLDVFLKHVRLLSRKQFQLRALMQKARKTAGLSDLY
notes: range 240-391; also called C-terminal fragment of Tsg101; amino acid residues 240-390
binds: all assays above
